This is an account of results in patent publication US20130315910A1 (Xencor, published 2013).

One may read the Kd as the constant that tells how readily two partners part at equilibrium. A high value points to lower affinity.

To fix the notation:
B1: G236H (antibody, human IgG1, kappa)
heavy: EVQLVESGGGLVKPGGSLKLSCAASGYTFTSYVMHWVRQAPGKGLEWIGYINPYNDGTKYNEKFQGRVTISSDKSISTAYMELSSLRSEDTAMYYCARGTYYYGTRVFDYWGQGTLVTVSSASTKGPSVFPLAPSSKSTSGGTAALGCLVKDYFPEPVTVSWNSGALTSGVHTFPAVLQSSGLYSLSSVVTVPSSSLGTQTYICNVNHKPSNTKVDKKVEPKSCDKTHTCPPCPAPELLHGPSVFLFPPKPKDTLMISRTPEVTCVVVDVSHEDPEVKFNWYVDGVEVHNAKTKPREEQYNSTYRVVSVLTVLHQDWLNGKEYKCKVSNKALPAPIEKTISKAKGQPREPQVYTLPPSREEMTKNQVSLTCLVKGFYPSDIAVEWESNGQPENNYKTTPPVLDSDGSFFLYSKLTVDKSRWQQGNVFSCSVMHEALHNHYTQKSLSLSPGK
light: DIVMTQSPATLSLSPGERATLSCRSSKSLQNVNGNTYLYWFQQKPGQSPQLLIYRMSNLNSGVPDRFSGSGSGTEFTLTISSLEPEDFAVYYCMQHLEYPITFGAGTKLEIKRTVAAPSVFIFPPSDEQLKSGTASVVCLLNNFYPREAKVQWKVDNALQSGNSQESVTEQDSKDSTYSLSSTLTLSKADYEKHKVYACEVTHQGLSSPVTKSFNRGEC
notes: HuAM4G7 anti-CD19 IgG1 (m1) with this Fc substitution, EU index; copies: 2 + 2
B2: L235T/S267E (antibody, human IgG1, kappa)
heavy: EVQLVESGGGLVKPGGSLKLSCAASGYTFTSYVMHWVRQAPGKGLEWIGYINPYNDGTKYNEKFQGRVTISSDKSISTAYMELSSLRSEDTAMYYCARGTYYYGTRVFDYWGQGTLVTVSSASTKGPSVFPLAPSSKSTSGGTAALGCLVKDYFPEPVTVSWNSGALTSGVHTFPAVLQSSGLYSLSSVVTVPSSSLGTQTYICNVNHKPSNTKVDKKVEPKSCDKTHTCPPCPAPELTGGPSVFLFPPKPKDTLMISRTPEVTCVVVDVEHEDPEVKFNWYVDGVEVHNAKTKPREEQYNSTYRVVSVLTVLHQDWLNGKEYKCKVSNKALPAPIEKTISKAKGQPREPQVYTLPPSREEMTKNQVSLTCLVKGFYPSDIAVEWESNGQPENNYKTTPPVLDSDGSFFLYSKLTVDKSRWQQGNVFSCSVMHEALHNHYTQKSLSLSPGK
light: B1 light
notes: HuAM4G7 anti-CD19 IgG1 (m1) with these Fc substitutions, EU index; copies: 2 + 2
B3: L234I (antibody, human IgG1, kappa)
heavy: not shown
light: B1 light
notes: as for B1
B4: L235S (antibody, human IgG1, kappa)
heavy: not shown
light: B1 light
notes: as for B1
B5: L234S (antibody, human IgG1, kappa)
heavy: not shown
light: B1 light
notes: as for B1
B6: G236Y (antibody, human IgG1, kappa)
heavy: not shown
light: B1 light
notes: as for B1
B7: L235Q (antibody, human IgG1, kappa)
heavy: not shown
light: B1 light
notes: as for B1
B8: L235W (antibody, human IgG1, kappa)
heavy: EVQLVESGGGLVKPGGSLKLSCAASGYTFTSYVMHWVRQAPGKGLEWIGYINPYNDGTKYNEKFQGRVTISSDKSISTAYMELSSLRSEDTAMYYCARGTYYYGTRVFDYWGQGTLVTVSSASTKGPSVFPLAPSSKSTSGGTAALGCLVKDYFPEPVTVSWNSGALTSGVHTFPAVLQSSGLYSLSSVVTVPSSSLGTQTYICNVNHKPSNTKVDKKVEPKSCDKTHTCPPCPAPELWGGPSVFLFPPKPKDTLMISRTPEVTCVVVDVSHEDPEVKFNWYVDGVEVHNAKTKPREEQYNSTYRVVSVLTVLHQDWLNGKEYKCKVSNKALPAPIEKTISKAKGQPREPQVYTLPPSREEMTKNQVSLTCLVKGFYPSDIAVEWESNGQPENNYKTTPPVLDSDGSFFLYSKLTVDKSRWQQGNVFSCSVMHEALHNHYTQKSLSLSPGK
light: B1 light
notes: as for B1
B9: G236L (antibody, human IgG1, kappa)
heavy: not shown
light: B1 light
notes: as for B1
B10: L235P (antibody, human IgG1, kappa)
heavy: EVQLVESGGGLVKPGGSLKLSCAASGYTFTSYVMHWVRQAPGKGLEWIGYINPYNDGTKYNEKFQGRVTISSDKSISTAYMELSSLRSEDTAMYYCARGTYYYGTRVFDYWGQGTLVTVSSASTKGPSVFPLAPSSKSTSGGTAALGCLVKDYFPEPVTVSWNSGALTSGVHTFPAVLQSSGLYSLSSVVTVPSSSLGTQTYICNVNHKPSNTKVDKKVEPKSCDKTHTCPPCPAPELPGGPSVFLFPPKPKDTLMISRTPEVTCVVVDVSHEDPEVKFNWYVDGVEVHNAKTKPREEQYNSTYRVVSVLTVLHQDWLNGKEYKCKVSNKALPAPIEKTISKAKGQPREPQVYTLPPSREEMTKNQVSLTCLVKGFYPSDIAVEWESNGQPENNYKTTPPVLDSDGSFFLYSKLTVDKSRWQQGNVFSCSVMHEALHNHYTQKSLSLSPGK
light: B1 light
notes: as for B1
B11: L234F/G236N (antibody, human IgG1, kappa)
heavy: not shown
light: B1 light
notes: as for B2
B12: G236M (antibody, human IgG1, kappa)
heavy: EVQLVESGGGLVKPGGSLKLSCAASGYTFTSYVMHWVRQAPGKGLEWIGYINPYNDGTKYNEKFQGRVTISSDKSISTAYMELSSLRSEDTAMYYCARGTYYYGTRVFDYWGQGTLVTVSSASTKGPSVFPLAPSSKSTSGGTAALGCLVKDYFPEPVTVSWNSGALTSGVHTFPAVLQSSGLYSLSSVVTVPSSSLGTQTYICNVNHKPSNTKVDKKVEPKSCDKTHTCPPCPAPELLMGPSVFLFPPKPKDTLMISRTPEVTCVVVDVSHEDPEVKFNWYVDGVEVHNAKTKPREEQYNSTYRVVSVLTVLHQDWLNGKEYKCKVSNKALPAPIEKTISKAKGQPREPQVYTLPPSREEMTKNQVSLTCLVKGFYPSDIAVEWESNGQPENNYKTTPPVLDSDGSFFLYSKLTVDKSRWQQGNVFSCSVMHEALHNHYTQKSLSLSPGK
light: B1 light
notes: as for B1
B13: G237P (antibody, human IgG1, kappa)
heavy: not shown
light: B1 light
notes: as for B1
B14: L235H (antibody, human IgG1, kappa)
heavy: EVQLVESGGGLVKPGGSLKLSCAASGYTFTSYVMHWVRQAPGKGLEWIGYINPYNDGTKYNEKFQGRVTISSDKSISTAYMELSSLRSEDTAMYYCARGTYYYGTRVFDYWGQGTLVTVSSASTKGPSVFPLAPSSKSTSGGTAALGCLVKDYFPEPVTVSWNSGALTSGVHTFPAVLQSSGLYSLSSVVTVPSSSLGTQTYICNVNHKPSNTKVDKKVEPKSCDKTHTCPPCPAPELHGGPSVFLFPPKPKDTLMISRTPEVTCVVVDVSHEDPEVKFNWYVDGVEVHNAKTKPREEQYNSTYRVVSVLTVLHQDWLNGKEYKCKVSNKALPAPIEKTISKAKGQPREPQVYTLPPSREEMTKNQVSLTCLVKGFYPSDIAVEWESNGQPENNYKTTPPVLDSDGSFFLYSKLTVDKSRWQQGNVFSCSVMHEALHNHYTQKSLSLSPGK
light: B1 light
notes: as for B1
B15: G236W (antibody, human IgG1, kappa)
heavy: not shown
light: B1 light
notes: as for B1
B16: G237V (antibody, human IgG1, kappa)
heavy: not shown
light: B1 light
notes: as for B1
B17: L234Y (antibody, human IgG1, kappa)
heavy: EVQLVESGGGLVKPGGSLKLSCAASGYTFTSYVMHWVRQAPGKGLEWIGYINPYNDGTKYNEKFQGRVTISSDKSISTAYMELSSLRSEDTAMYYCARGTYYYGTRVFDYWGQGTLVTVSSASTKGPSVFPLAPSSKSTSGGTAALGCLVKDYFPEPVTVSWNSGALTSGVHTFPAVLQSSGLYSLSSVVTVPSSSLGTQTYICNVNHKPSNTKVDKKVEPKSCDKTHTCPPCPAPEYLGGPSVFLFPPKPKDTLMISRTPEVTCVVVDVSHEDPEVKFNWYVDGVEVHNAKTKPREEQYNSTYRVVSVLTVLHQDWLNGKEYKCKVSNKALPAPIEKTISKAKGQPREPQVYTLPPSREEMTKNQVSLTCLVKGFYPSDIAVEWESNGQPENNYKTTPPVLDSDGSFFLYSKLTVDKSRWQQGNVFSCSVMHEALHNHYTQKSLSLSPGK
light: B1 light
notes: as for B1
B18: L234P (antibody, human IgG1, kappa)
heavy: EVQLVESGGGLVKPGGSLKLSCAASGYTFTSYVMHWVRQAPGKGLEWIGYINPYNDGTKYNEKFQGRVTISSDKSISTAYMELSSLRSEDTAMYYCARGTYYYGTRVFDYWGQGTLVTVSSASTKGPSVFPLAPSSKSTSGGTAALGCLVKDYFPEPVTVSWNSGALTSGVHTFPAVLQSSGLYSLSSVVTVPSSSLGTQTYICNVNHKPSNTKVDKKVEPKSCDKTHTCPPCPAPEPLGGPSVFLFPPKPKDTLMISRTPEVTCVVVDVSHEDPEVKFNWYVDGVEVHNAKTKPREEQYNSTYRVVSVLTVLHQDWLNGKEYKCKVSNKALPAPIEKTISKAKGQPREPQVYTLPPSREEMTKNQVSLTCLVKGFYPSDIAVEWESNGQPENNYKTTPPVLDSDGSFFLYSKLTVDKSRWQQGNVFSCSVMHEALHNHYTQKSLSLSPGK
light: B1 light
notes: as for B1
B19: G236Q (antibody, human IgG1, kappa)
heavy: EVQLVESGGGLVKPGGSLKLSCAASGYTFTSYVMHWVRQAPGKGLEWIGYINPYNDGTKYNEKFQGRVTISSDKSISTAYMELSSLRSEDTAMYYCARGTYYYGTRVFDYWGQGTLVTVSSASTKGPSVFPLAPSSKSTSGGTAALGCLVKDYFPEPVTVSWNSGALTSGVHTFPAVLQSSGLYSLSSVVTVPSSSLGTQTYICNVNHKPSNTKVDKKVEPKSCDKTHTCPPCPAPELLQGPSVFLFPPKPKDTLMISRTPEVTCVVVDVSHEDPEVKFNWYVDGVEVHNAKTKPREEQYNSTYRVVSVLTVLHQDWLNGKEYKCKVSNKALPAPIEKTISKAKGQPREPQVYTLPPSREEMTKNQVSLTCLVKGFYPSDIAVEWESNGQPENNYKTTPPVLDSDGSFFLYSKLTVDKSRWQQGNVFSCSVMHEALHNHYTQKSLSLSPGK
light: B1 light
notes: as for B1
B20: G236I (antibody, human IgG1, kappa)
heavy: not shown
light: B1 light
notes: as for B1
B21: G237Y (antibody, human IgG1, kappa)
heavy: not shown
light: B1 light
notes: as for B1
B22: G236K (antibody, human IgG1, kappa)
heavy: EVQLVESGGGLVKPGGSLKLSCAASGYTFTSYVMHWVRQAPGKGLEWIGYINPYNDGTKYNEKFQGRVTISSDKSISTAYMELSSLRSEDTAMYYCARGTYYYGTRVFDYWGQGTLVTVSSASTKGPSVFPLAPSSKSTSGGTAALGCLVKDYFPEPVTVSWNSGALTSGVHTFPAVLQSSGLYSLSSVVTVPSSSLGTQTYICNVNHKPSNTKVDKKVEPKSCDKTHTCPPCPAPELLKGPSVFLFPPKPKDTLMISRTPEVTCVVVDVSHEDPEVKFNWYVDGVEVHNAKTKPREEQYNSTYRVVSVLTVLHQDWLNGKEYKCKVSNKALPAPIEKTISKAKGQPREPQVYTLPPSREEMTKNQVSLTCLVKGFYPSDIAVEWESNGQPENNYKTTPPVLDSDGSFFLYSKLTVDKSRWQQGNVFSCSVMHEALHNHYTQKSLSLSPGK
light: B1 light
notes: as for B1
B23: G237Q (antibody, human IgG1, kappa)
heavy: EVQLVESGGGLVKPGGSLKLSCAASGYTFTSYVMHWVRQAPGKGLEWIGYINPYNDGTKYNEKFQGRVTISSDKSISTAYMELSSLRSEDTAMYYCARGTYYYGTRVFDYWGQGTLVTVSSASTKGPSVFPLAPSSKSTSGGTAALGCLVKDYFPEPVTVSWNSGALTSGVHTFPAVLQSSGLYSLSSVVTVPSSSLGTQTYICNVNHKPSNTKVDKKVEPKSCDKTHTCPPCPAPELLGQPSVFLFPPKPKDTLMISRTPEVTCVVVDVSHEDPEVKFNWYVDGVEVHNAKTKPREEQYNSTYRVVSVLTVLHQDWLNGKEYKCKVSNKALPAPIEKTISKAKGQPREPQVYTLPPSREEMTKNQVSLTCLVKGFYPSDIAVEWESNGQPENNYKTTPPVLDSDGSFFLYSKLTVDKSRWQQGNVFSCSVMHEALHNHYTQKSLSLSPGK
light: B1 light
notes: as for B1
B24: L234V (antibody, human IgG1, kappa)
heavy: not shown
light: B1 light
notes: as for B1
B25: G237L (antibody, human IgG1, kappa)
heavy: not shown
light: B1 light
notes: as for B1

The target in the first assay is T1, human FcγRIIb receptor protein (R&D Systems) (human, UniProt P31994 46-217).
T1 construct: Bought protein injected over captured antibody in Biacore; also called CD32b
T1 sequence (looked up): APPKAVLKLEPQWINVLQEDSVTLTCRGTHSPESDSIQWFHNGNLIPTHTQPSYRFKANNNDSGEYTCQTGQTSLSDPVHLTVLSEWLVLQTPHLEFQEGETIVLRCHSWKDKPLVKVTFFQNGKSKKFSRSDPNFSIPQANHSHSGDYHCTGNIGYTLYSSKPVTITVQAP
Put plainly: SPR. The procedure:
(§1) Variants were screened for receptor affinity using Biacore™ technology, also referred to as Biacore herein, a surface plasmon resonance (SPR) based technology for studying biomolecular interactions in real time. SPR measurements were performed using a Biacore 3000 instrument (Biacore, Piscataway, N.J.). A protein A/G (Pierce Biotechnology) CM5 biosensor chip (Biacore) was generated using a standard primary amine coupling protocol. All measurements were performed using HBS-EP buffer (10 mM HEPES pH 7.4, 0.15 M NaCl, 3 mM EDTA, 0.005% vol/vol surfactant P20, Biacore). Antibodies at 20 nM or 50 nM in HBS-EP buffer were immobilized on the protein A/G surface and FcγRs were injected. After each cycle, the surface was regenerated by injecting glycine buffer (10 mM, pH 1.5). Data were processed by zeroing time and response before the injection of FcγR and by subtracting appropriate nonspecific signals (response of reference channel and injection of running buffer). Kinetic analyses were performed by global fitting of binding data with a 1:1 Langmuir binding model using BIAevaluation software (Biacore).
Background: SPR reads the build-up and loss of mass on a sensor chip optically.
Turning to B1, the binding result is given as “no binding”.
In the case of B2, the “Fold vs WT IgG1” value stood at 2.37 fold and the Kd came out at 0.619 µM.
Consider B3, for which the “Fold vs WT IgG1” value came out at 0.108 fold and binding was characterised by a dissociation constant (Kd) of 13.6 µM.
Regarding B4, the “Fold vs WT IgG1” value was 0.0147 fold and binding was put at a Kd of 100 µM.
On to B5, for which the “Fold vs WT IgG1” value was 0.192 fold and the Kd is 7.64 µM.
Turning to B6, the binding result is given as “no binding”.
On to B7, for which the binding result is “no binding”.
In the case of B8, the binding result is listed as “no binding”.
The same measure, in the same setting: as for B9, the entry is “no binding”.
Take B10: the “Fold vs WT IgG1” value worked out at 0.00585 fold and the Kd was determined as 251 µM.
Regarding B11, the binding result is on record as “no binding”.
As for B12, the “Fold vs WT IgG1” value is 0.147 fold and the affinity, expressed as Kd, was 10 µM.
Regarding B13, the “Fold vs WT IgG1” value was 0.0147 fold and binding was put at a Kd of 100 µM.
As to B14, the “Fold vs WT IgG1” value is 0.734 fold and the Kd amounted to 2 µM.
With B15, the “Fold vs WT IgG1” value amounted to 0.147 fold and binding was put at a Kd of 10 µM.
Regarding B16, the “Fold vs WT IgG1” value amounted to 0.147 fold and binding was characterised by a dissociation constant (Kd) of 10 µM.
The matching figures for B17: 0.0237 fold and 61.9 µM.
The matching figures for B18: 0.0644 fold and 22.8 µM.
On the same counts, the results for B19 are 0.147 fold and 10 µM.
For B20, the binding result was “no binding”.
In the case of B21, the “Fold vs WT IgG1” value came out at 0.33 fold and the Kd came out at 4.45 µM.
On the same counts, the results for B22 are 0.0147 fold and 100 µM.
B23: the “Fold vs WT IgG1” value is 0.147 fold and the Kd worked out at 10 µM.
In the case of B24, the “Fold vs WT IgG1” value is 0.456 fold and the Kd turned out to be 3.22 µM.
Consider B25, for which the binding result is on record as “no binding”.

The target in another assay is T2, human FcγRIIa (131R), His- and GST-tagged (human, UniProt P12318 34-217).
T2 construct: Expressed in HEK293T cells, purified by nickel chromatography; also called R131 FcγRIIa; not shown: 6xHis and GST tags of the pTT5 vector
T2 sequence (looked up): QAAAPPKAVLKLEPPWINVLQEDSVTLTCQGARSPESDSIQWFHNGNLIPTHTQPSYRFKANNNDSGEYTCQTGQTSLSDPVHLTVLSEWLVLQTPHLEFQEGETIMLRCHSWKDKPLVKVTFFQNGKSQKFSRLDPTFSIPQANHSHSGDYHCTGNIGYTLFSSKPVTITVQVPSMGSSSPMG
Put plainly: SPR. The procedure: as §1
As for B1, the “Fold vs WT IgG1” value came to 0.135 fold and the affinity, expressed as Kd, was 6.35 µM.
With B2, the “Fold vs WT IgG1” value turned out to be 3.06 fold and the Kd was 0.281 µM.
B3: the “Fold vs WT IgG1” value amounted to 0.0554 fold and the Kd amounted to 15.5 µM.
On the same counts, the results for B4 are 0.00859 fold and 100 µM.
On the same counts, the results for B5 are 0.693 fold and 1.24 µM.
With B6, the binding result is reported as “no binding”.
Take B7: the “Fold vs WT IgG1” value is 2.04 fold and the Kd worked out at 0.42 µM.
Consider B8, for which the binding result is given as “no binding”.
Take B9: the binding result is “no binding”.
Regarding B10, the “Fold vs WT IgG1” value is 0.122 fold and the Kd was 7.01 µM.
With B11, the binding result is on record as “no binding”.
Take B12: the “Fold vs WT IgG1” value worked out at 0.0859 fold and the affinity, expressed as Kd, was 10 µM.
On the same counts, the results for B13 are 0.00859 fold and 100 µM.
The matching figures for B14: 0.756 fold and 1.14 µM.
Regarding B15, the “Fold vs WT IgG1” value stood at 0.0859 fold and the affinity, expressed as Kd, was 10 µM.
As for B16, the “Fold vs WT IgG1” value was 0.0342 fold and binding was characterised by a dissociation constant (Kd) of 25.1 µM.
For the molecule B17, the “Fold vs WT IgG1” value is 0.0511 fold and the Kd stood at 16.8 µM.
On to B18, for which the “Fold vs WT IgG1” value came to 0.0141 fold and the Kd stood at 60.7 µM.
For the molecule B19, the “Fold vs WT IgG1” value was 0.0859 fold and the Kd is 10 µM.
Take B20: the binding result was “no binding”.
B21: the “Fold vs WT IgG1” value is 0.902 fold and the affinity, expressed as Kd, was 0.952 µM.
B22: the “Fold vs WT IgG1” value is 0.00859 fold and the Kd amounted to 100 µM.
With B23, the “Fold vs WT IgG1” value turned out to be 0.0859 fold and the Kd is 10 µM.
Consider B24, for which the “Fold vs WT IgG1” value was 0.134 fold and the Kd is 6.42 µM.
As to B25, the binding result is recorded as “no binding”.

A further assay has as its target T3, cynoFcγRIIb (Macaca fascicularis, UniProt A0A140HDP4).
T3 construct: extracellular region, C-terminal His- and GST-tag; also called cynomolgus monkey FcγRIIb
T3 sequence (receptor extracellular region): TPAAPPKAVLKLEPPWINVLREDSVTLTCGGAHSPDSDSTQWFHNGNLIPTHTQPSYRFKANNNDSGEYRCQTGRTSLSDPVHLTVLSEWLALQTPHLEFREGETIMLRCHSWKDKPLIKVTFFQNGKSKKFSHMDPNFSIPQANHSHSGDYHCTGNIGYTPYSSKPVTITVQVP
Nature of the assay: SPR. How it is done:
as §1
Variant antibodies were tested for their affinity to mouse or cynologous monkey FcγRs using Biacore SPR as described above. Specifically, antibodies were first immobilized on a protein A/G chip to high density, and then followed by injections of the extracellular domain of the mouse or cynologous monkey FcγR of interest. Both association and dissociation phases were tracked in real time using the Biacore technology.
Turning to B8, the “Fold vs WT IgG1 (Kd)” value is 1.44 fold.
Still for that read-out and setting: as for B14, the figure is 0.832 fold; as for B17, 1.01 fold.
